This is an account of results in US20210379147A1, “METHOD AND SYSTEM FOR TREATING CANCER UTILIZING TINAGL1” (The Trustees of Princeton University, priority 2018, published 2021).

One assay addresses EGFR (Homo sapiens, UniProt P00533). The assay is described as follows: EGF-induced EGFR activation in LM2 cells (WB). Type of assay: cell-based. The conditions noted are these: 1 hour pre-treatment, then EGF 10 min. On the procedure:
FIG. 11A is an image of WB analyses where LM2 cells with or without 1 hour pre-treatment of the indicated amount of r-Tinagl1 were then treated with indicated amount of EGF for another 10 min, then lysed.
For WB analysis, cells were collected and lysed with IP lysis buffer described above. After boiled with SDS laemmli buffer, the samples were resolved with SDS-PAGE gel and immunoblotted with standard protocols.
Cells were treated with r-Tinagl1 and the activity of EGFR and integrin/FAK signaling pathways was evaluated. To test EGFR activation, the LM2 cells were subjected to EGF, r-Tinagl1, or EGF/r-Tinagl1 combined treatment. […] Referring to FIGS. 11B and 11C, EGF-dependent activation of EGFR was similarly attenuated in cells expressing Tinagl1 compared to control cells.

Another assay addresses T1, EGFR dimerization (Homo sapiens, UniProt P00533).
T1 construct: host or cells: LM2
The assay is described as follows: EGFR dimerization in LM2 cells (co-IP of EGFR-GFP/EGFR-Myc; DSS cross-linking). Type of assay: cell-based. The conditions noted are these: 1 μg/ml r-Tinagl1 1 hr. On the procedure:
FIG. 14A is an image of WB analyses where LM2 cells were transfected with plasmids to overexpress GFP-EGFR and EGFR-Myc. 48 hr after transfection, the cells were treated with or without 1 μg/ml of r-Tinagl1 for 1 hr, followed by 10 min of 1 ng/ml EGF treatment, then collected and immunoprecipitated with either IgG or anti-Myc antibody, after which the IP samples were subjected to WB analysis.
FIG. 14B is a graph illustrating the quantified amount of EGFR-GFP that interacts with EGFR-Myc, normalized to PBS treatment group.
FIG. 14C is an image of WB analyses where LM2 cells stably expressed EGFR-Myc were pretreated with PBS or 1 μg/ml of r-Tinagl1 for 1 hr, treated with 1 ng/ml of EGF for another 10 min, then cells were collected and the dimers were cross-linked with disuccinimidyl suberate (DSS) treatment, followed by WB analysis.
FIG. 14D is a graph illustrating the ratio of dimerized EGFR in each treatment group that was quantified.
Whether Tinagl1 prevents EGFR dimerization independent of interfering with EGF binding to EGFR was tested. […] To further validate this conclusion, LM2 cells with EGFR-Myc stably expressed were treated with EGF or r-Tinagl1 alone or combination. […]
The assay was performed as previously described (Wang et al., 2015). […] Finally, the cells were then lysed with IP lysis buffer for 20 min on ice, and EGFR dimerization was analyzed by WB.

In assay [1] the test system is primary tumors and lung metastases. Kind of assay: IHC staining of tumor samples from treatment groups (Ki67, Casp3, CD31, α-SMA). Type of assay: in vivo, NSG female mice. On the procedure:
FIGS. 17F-17I are graphs quantifying positives cells per field where primary tumors were collected from indicated treatment groups from FIG. 17D and then subjected to IHC staining with indicated antibodies, including % Ki67^+ (17F), % Casp3^+ (17G), % CD31^+ (17H), and % α-SMA^+ (17I).
TIC staining was performed as previously described (Wan et al., 2014). Briefly, Paraffin-embedded primary tumor or lung samples were sliced into 4 μm thickness. The slides were baked overnight at 60° C. Next, the tissue slides were washed with PBS after deparaffinization and hydration and then boiled in citrate buffer at 100° C. for 40 min. After treated with 3% H2O2 for 30 min to block endogenous peroxidase, slides were incubated at 4° C. overnight with Ki67 (Leica Biosystem, Ki67-MM1-L-CE-S), cleaved caspase-3 (Cell signaling, 9661S), p-EGFR (Cell signaling, 3777), p-FAK (Cell signaling, 8556), CD31 (Cell signaling, 77699), -SMA (Sigma, A5228), or Tinagl1 (Sigma, HPA048695) antibodies. Following washes with PBS, slides were then incubated with HRP-conjugated goat anti-rabbit or mouse secondary antibody (Genetech) for 30 min at room temperature. Sections were stained by DAB and then counterstained with Gill hematoxylin according to manufacturer's instructions.

B1: r-Tinagl1: full length recombinant human Tinagl1 with 6×His tag at the C-terminus [SEQ ID NO.: 24], expressed in HEK293T cells (protein, listed as Homo sapiens)
chain: MWRCPLGLLLLLPLAGHLALGAQQGRGRRELAPGLHLRGIRDAGGRYCQEQDLCCRGRADDCALPYLGAICYCDLFCNRTVSDCCPDFWDFCLGVPPPFPPIQGCMHGGRIYPVLGTYWDNCNRCTCQENRQWQCDQEPCLVDPDMIKAINQGNYGWQAGNHSAFWGMTLDEGIRYRLGTIRPSSSVMNMHEIYTVLNPGEVLPTAFEASEKWPNLIHEPLDQGNCAGSWAFSTAAVASDRVSIHSLGHMTPVLSPQNLLSCDTHQQQGCRGGRLDGAWWFLRRRGVVSDHCYPFSGRERDEAGPAPPCMMHSRAMGRGKRQATAHCPNSYVNNNDIYQVTPVYRLGSNDKEIMKELMENGPVQALMEVHEDFFLYKGGIYSHTPVSLGRPERYRRHGTHSVKITGWGEETLPDGRTLKYWTAANSWGPAWGERGHFRIVRGVNECDIESFVLGVWGRVGMEDMGHHVDHHHHHH
modifications: C-terminal 6xHis tag
Regarding B1, the “EGF-induced EGFR activation” value with EGFR was “dramatically attenuated”. Besides, the “amount of EGFR-GFP bound by EGFR-Myc” value with EGFR dimerization (in the presence of EGF) is listed as “significantly reduced the amount of EGFR-GFP bound by EGFR-Myc”. For the same molecule, the “dimer form of EGFR (DSS cross-linking)” value with EGFR dimerization (then EGF) is reported as “reduced”. Further, the “CD31+ endothelium” value in assay [1] (primary and lung metastasis) is listed as “significantly reduced”. Besides, in assay [1] (primary tumor and lung metastatic nodules), the “tumor cell proliferation (Ki67 staining)” value was “strong anti-proliferative effects on both primary tumors and lung metastases”.
